Measurements as given in paper PMC4462140.

Target: T1, myristoylated zGCAP2 (zebrafish), Q90WX3
T1 chain: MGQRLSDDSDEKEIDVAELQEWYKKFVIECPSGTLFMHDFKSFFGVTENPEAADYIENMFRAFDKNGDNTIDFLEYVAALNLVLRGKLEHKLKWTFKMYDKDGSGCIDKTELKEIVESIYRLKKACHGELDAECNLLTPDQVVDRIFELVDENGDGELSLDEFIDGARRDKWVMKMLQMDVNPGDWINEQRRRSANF
Experiment: SEC; analytical size exclusion chromatography of purified myristoylated zGCAPs on a Primaide HPLC system, as described previously (refs 12, 18, 30); Ca2+ dependence tested; data not shown
Conditions: remark: other sources report otherwise

percent monomeric form: 80%
stoichiometry N: 2
B1: myristoylated zGCAP2, Q90WX3 1-197 (natural protein)
chain: MGQRLSDDSDEKEIDVAELQEWYKKFVIECPSGTLFMHDFKSFFGVTENPEAADYIENMFRAFDKNGDNTIDFLEYVAALNLVLRGKLEHKLKWTFKMYDKDGSGCIDKTELKEIVESIYRLKKACHGELDAECNLLTPDQVVDRIFELVDENGDGELSLDEFIDGARRDKWVMKMLQMDVNPGDWINEQRRRSANF
modifications: here or on the partner: N-terminal myristoyl group; N-terminal myristoyl group
